Experimental data taken from paper PMC12502808, “Catalytic His-loop flexibility drives high activity in hyperthermophilic esterase EstE1 while preserving structural stability” (Microbiology Spectrum, 2025).
Where a chain is given by its changes, count along the chain named. Names and notes keep the numbering of the source.

Columns and labels:
[1] = target: EstE1 wild type (hyperthermophilic esterase); assay: SEC; Superdex 200 column equilibrated with 50 mM sodium phosphate, 150 mM NaCl, pH 7.0; molecular weight determination of the purified protein
[2] = system: CC(=O)Oc1ccc([N+](=O)[O-])cc1; assay: purified protein; assay type: biochemical, Pseudomonas sp. ECU1011; settings: 100 mM Tris-HCl, 100 mM NaCl, pH 7.5, optimal temperature (45-50°C for WT, 30°C for mutants)
purified protein [3] = substrate: CCCCCC(=O)Oc1ccc([N+](=O)[O-])cc1; assay: purified protein; assay type: biochemical, uncultured archaeon; settings: 100 mM Tris-HCl, 100 mM NaCl, pH 7.5, optimal temperature 70°C
purified protein [4] = substrate: CC(=O)Oc1ccc([N+](=O)[O-])cc1; assay: purified protein; assay type: biochemical, Pseudomonas sp. ECU1011; settings: 100 mM Tris-HCl, 100 mM NaCl, pH 7.5, optimal temperature (45-50°C)

With “EstE1 wild type (hyperthermophilic esterase) (enzyme)” the stoichiometry N [1] was 2.

For rPPE (Pseudomonas sp. ECU1011; D287E), the Km [2] was 6 ± 1 µM, the kcat [2] was 2.1 ± 0.1 s⁻¹ and the kcat/Km [2] was 330000 ± 20000 M⁻¹ s⁻¹.

rPPE (Pseudomonas sp. ECU1011; D287G) was tested, and the Km [2] was 114 ± 2 µM, the kcat [2] was 13 ± 1 s⁻¹ and the kcat/Km [2] was 110000 ± 10000 M⁻¹ s⁻¹.

B1: EstE1 (uncultured archaeon) (protein)
chain: MPLDPQIKPILERIRALSIAASPQELRRQVEEQSRLLTAAVQEPIAETRDVHIPVSGGSIRARVYFPKKAAGLPAVLYYHGGGFVFGSIETHDHICRRLSRLSDSVVVSVDYRLAPEYKFPTAVEDAYAALKWVADRADELGVDPDRIAVAGDSAGGNLAAVVSILDRNSGEKLVKKQVLIYPVVNMTGVPTASLVEFGVAETTSLPIELMVWFGRQYLKRPEEAYDFKASPLLADLGGLPPALVVTAEYDPLRDEGELYAYKMKASGSRAVAVRFAGMVHGFVSFYPFVDAGREALDLAAASIRSGLQPS
B1 was tested, and the Km (purified protein [3]) was 1520 ± 17 µM, the kcat (purified protein [3]) was 2900 ± 1 s⁻¹ and the kcat/Km (purified protein [3]) was 1.91e+06 ± 20000 M⁻¹ s⁻¹.

B2: EstE1 (uncultured archaeon; G282N) (protein)
chain: B1 chain with G282N
B2 gave a Km (purified protein [3]) of 1330 ± 79 µM, a kcat (purified protein [3]) of 1980 ± 84 s⁻¹ and a kcat/Km (purified protein [3]) of 1.49e+06 ± 30000 M⁻¹ s⁻¹.

B3: EstE1 (uncultured archaeon; G282Q) (protein)
chain: B1 chain with G282Q
In the case of B3, the Km (purified protein [3]) is reported as 745 ± 40 µM, the kcat (purified protein [3]) is reported as 950 ± 27 s⁻¹ and the kcat/Km (purified protein [3]) is reported as 1.28e+06 ± 30000 M⁻¹ s⁻¹.

B4: rPPE (Pseudomonas sp. ECU1011) (protein)
chain: GSPGVEQHTKAFLEALEQGGGKPLEQLSPKDARAVLTGAQASVKVDLSGIEVKERTIQANGQSIKLQVVRPANVKGELPVFMFFHGGGWVLGDFPTHQRLIRDLVVGSGAVAVYVDYTPSPESHYPTAINQAYAATQWVAEHGKEIGVDGKRLAVAGNSVGGNMAAVVALKAKEAGTPALRFQLLLWPVTDASFETASYKQFADGHFLTTGMMKWFWDNYTTDAKAREQIYASPLRASSEQLKGLPPALVQTAEFDVLRDEGEAYARKLNAAGVTVTSVRYNGMIHDYGLLNPLSQVPAVKAAMRQAGTELKVHLQ
B4 showed a Km (purified protein [4]) of 33 ± 1 µM, a kcat (purified protein [4]) of 2 ± 0.1 s⁻¹ and a kcat/Km (purified protein [4]) of 60000 ± 10000 M⁻¹ s⁻¹.
